System: MS2 coat protein
Assay: apparent KD of MS2 coat protein; designed switch direction (-1 OFF switch, 1 ON switch): 1; higher = weaker reporter binding
Procedure, shortened: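 Designed RNA switches sharing common flanks were transcribed on Illumina chips by stalled E. coli RNA polymerase. They were titrated with SNAP-549-labelled MS2 coat protein, from 0.7 or 1.5 nM doubling to 3 µM, in Tris-HCl pH 7.5 buffer with KCl, MgCl2, BSA, DTT, tRNA and Tween-20. Titrations ran without input, with 200 uM small-molecule ligand, or with an oligonucleotide input. The apparent KD of each design is the median over its clusters, after curve-fitting of normalised cluster fluorescence.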

[1] = input ligand: microRNA oligo, concentration not stated
[2] = Eterna round: R95, input ligand: FMN 200 uM
[3] = Eterna round: R95, input ligand: microRNA oligo, concentration not stated
[4] = Eterna round: R95, input ligand: none

CUGUAUCGCGGAGGAUAUGGGCUGAGACCAGGGCAACCCUGGUCAACAUGAGGAUCACCCAUGUCCCAGAAGGCCGCGAUGCUA [Diaraenve] (Eterna round: R96, puzzle: Same State NG 2)
apparent KD of MS2 coat protein (input ligand: FMN 200 uM): 19.7 nM
apparent KD of MS2 coat protein [1]: 73.6 nM
apparent KD of MS2 coat protein (input ligand: none): 113 nM

UUAAGCCACGAGCAGGAUAUGUAUUAAAAUACAUGAGGAUCACCCAUGUGCAGGUGUAACACCUGACAGAAGGGCCAAUCGCGGC [Soondi - 1] (puzzle: Same State 2)
apparent KD of MS2 coat protein [2]: 256 nM
apparent KD of MS2 coat protein [3]: 366 nM
apparent KD of MS2 coat protein [4]: 461 nM

GAGUGGCAGUAAGGAUAUAUAAUGAUAAUCACAGUAGAAGGUACUGACAUGAGGAUCACCCAUGUAGGACUAAACCAGAGAGAG [Parity 43 - Jieux - Same State NG 1] (Eterna round: R96, puzzle: Same State NG 1)
apparent KD of MS2 coat protein (input ligand: FMN 200 uM): 33.8 nM
apparent KD of MS2 coat protein [1]: 20.2 nM
apparent KD of MS2 coat protein (input ligand: none): 20.1 nM

UGCCUGAGUCGAGGAUAUUAUGGAUCCUCUAAUACAUGAGGAUCACCCAUGUAAUUAAUUAUACAUGAGAAGGCGACUCAGGCA [SSNG2/12-A2] (Eterna round: R96, puzzle: Same State NG 2)
apparent KD of MS2 coat protein (input ligand: FMN 200 uM): 278 nM
apparent KD of MS2 coat protein [1]: 6.26 nM
apparent KD of MS2 coat protein (input ligand: none): 66.2 nM

GUGGUCAGACAUGAGGAUCACCCAUGUGGAAUAAAUAAGGGACAGGAUAUCCAAUAUAGGAUAUAGGAGAAGGGUUGGUUGGUG (Eterna round: R96, puzzle: Same State NG 3)
apparent KD of MS2 coat protein (input ligand: FMN 200 uM): 78.9 nM
apparent KD of MS2 coat protein [1]: 64.5 nM
apparent KD of MS2 coat protein (input ligand: none): 73.9 nM

AGUCCAGCAAGAGCUGGACAAAAGCAUGUACAUGAGGAUCACCCAUGUUCAUGUACAAGCUUUUUGCAAGUCAAAAG [Mat - hsa-mir-208a - Mod of JL - 73] (puzzle: Sensor for hsa-mir-208a)
apparent KD of MS2 coat protein [2]: 321 nM
apparent KD of MS2 coat protein [3]: 23.9 nM
apparent KD of MS2 coat protein [4]: 416 nM

AGCGAAAUAAGCAAGGAUAUGUAAUUUGGCACAUGAGGAUCACCCAUGUCAAUCCAUUUUUUGGAACAGAAGGUGCAUUUUUUUU [ak third] (puzzle: Same State 2)
apparent KD of MS2 coat protein [2]: 69 nM
apparent KD of MS2 coat protein [3]: 100 nM
apparent KD of MS2 coat protein [4]: 102 nM

GUUACAUGAGGAUCACCCAUGUAUGUGUGGGAGUAAGUGUCUUAGGAUAUCUAUCAUUUAAGUUAAGAGAAGGAAGAUUGUUGU [JMF's solution 95] (Eterna round: R96, puzzle: Same State NG 3)
apparent KD of MS2 coat protein (input ligand: FMN 200 uM): 135 nM
apparent KD of MS2 coat protein [1]: 80.4 nM
apparent KD of MS2 coat protein (input ligand: none): 108 nM

AGUCCAGCCUGAGCUGGACAAAAGCAUGUACAUGAGGAUCACCCAUGUUCAUGUACAAGUUUUUUGCUCGUCUUAAA [Zipper 52 - 10] (puzzle: Sensor for hsa-mir-208a)
apparent KD of MS2 coat protein [2]: 38.4 nM
apparent KD of MS2 coat protein [3]: 11.1 nM
apparent KD of MS2 coat protein [4]: 39.6 nM

CUGAGGUGUCAAGGAUAUGCUACCGUUUCGGUAGCAGAAGGUGAUCACAUGAGGAUCACCCAUGUAUGCAUGCGUGAGCGUGCU [JL SSNG1 3.60] (Eterna round: R96, puzzle: Same State NG 1)
apparent KD of MS2 coat protein [1]: 17.8 nM

UGUUGUAUUACAGGAUAUCUAGUAUUUUCAUUUAGAGAAGGGUAUUCACAUGAGGAUCACCCAUGUAUAUACGAGGAAGUUGUG [JMF's solution 45] (Eterna round: R96, puzzle: Same State NG 1)
apparent KD of MS2 coat protein [1]: 34.7 nM

GAGCCAGUCCGAGGAUAUUCACAUGAGGAUCACCCAUGUAGGCUCAGAAAAGAAAAGGAGCCUUGGGAGAAGGCGGACUGGCUC [Xeonanisa<<8] (Eterna round: R96, puzzle: Same State NG 2)
apparent KD of MS2 coat protein (input ligand: FMN 200 uM): 6.35 nM
apparent KD of MS2 coat protein [1]: 9.87 nM
apparent KD of MS2 coat protein (input ligand: none): 13.3 nM

AUACCGUGCCAAGGAUAUGGUGUAAACACAUGAGGAUCACCCAUGUCAGAGAGUCGAGCGACUAGCUAGAAGGUGGUAUGGGAA [Eternabot solution 9] (Eterna round: R96, puzzle: Same State NG 2)
apparent KD of MS2 coat protein (input ligand: FMN 200 uM): 112 nM
apparent KD of MS2 coat protein [1]: 149 nM
apparent KD of MS2 coat protein (input ligand: none): 393 nM

UACGCGAGAGGAGGAUAUGCAGAGGAUCACCCUGUAGAAGGCCUCAUAAGGAGGAUAUGCAGAGGAUCACCCUGUAGAAGGCCU [pwkr ssNG DX.22] (Eterna round: R96, puzzle: Same State NG 1)
apparent KD of MS2 coat protein (input ligand: FMN 200 uM): 345 nM
apparent KD of MS2 coat protein [1]: 67.9 nM
apparent KD of MS2 coat protein (input ligand: none): 129 nM

CGGGUGAUCGUAGGAUAUCUAGGAUAUGAACGAGGAUCACCCGAGCAGCAUCAGCGCAUCAGAGGAGAGAAGGACGAUGAUGCG [pwkr ssNG2 2F5 2FMN.19] (Eterna round: R96, puzzle: Same State NG 2)
apparent KD of MS2 coat protein (input ligand: FMN 200 uM): 20.5 nM
apparent KD of MS2 coat protein [1]: 21.7 nM
apparent KD of MS2 coat protein (input ligand: none): 34 nM

AUUGGGUAACGAGGAUAUCGUUUUUGUUUUUUUCGAGAAGGCGUUAUAGUUUCUUUCUAUUGUUACAUGAGGAUCACCCAUGUU [JR_SSNG1_Sub053] (Eterna round: R96, puzzle: Same State NG 1)
apparent KD of MS2 coat protein (input ligand: FMN 200 uM): 15.8 nM
apparent KD of MS2 coat protein [1]: 16.2 nM
apparent KD of MS2 coat protein (input ligand: none): 16.5 nM

AGCUAUCGCGUACGAUAGCUGAAGCGUGUACAUGAGGAUCACCCAUGUCAUGUGCAAGCUUUUUGCUCGUCUUAUUG [JL-shm-2.29 JL mod] (puzzle: Sensor for hsa-mir-208a)
apparent KD of MS2 coat protein [2]: 353 nM
apparent KD of MS2 coat protein [3]: 14.8 nM
apparent KD of MS2 coat protein [4]: 459 nM

AGGCUCAGAGCAGGAUAUAUGUCUCGAGCUUCGGCUCGAGACAUGAGGAUCACCCAUGUAAUAACAUAGAAGGGCUCUGAGCCA [SSNG2/1-B1] (Eterna round: R96, puzzle: Same State NG 2)
apparent KD of MS2 coat protein (input ligand: FMN 200 uM): 11.2 nM
apparent KD of MS2 coat protein [1]: 45.8 nM
apparent KD of MS2 coat protein (input ligand: none): 63.4 nM

GCGAGCGUACUUGCAGACAUGAGGAUCACCCAUGUAACUGGACAGGAUAUGGUACCGUUUCGGUACCAGAAGGGUUCAUAUGUC [JL SSNG3 3.53] (Eterna round: R96, puzzle: Same State NG 3)
apparent KD of MS2 coat protein (input ligand: FMN 200 uM): 67.6 nM
apparent KD of MS2 coat protein [1]: 50.8 nM
apparent KD of MS2 coat protein (input ligand: none): 79.4 nM

UUAGUCAUGUAAGGAUAUGCAGCCGUUUCGGCUGCAGAAGGUACUAUAAUUACAUGAGGAUCACCCAUGUUAUAAAAUUUAUAU [JL SSNG1 1.24] (Eterna round: R96, puzzle: Same State NG 1)
apparent KD of MS2 coat protein (input ligand: FMN 200 uM): 19.9 nM
apparent KD of MS2 coat protein [1]: 25 nM
apparent KD of MS2 coat protein (input ligand: none): 36.6 nM

AGGCUCAGACGAGGAUAUAUGUAAUAACAUGAGGAUCACCCAUGUGUCGAGCUUCGGCUCGACACAUAGAAGGCGUCUGAGCCA [SSNG2/2-A1] (Eterna round: R96, puzzle: Same State NG 2)
apparent KD of MS2 coat protein (input ligand: FMN 200 uM): 8.75 nM
apparent KD of MS2 coat protein [1]: 17.4 nM
apparent KD of MS2 coat protein (input ligand: none): 25.7 nM

GCGGAACGGUGUGACAUGAGGAUCACCCAUGUAACCUCAUGUAAGGAUAUCGGGAAGAAGAAAACCGAGAAGGUACGGUGACGC [AK SSNG3-V2-29] (Eterna round: R96, puzzle: Same State NG 3)
apparent KD of MS2 coat protein (input ligand: FMN 200 uM): 399 nM
apparent KD of MS2 coat protein [1]: 152 nM
apparent KD of MS2 coat protein (input ligand: none): 706 nM

UUAAUAAUGAUAGGAUAUACAUGAGGAAUCCUCGUAGAAGGAUCAUGACAUGAGGAUCACCCAUGUAACGCUCAGAAGAGCGUA [Mat - Same State NG 1 - JL mod - D43] (Eterna round: R96, puzzle: Same State NG 1)
apparent KD of MS2 coat protein (input ligand: FMN 200 uM): 738 nM
apparent KD of MS2 coat protein [1]: 30.9 nM
apparent KD of MS2 coat protein (input ligand: none): 516 nM

UGGCUGGUGCUAGGAUAUGCAUGAGGCCUCCUCGUAGAAGGAGCACGACAUGAGGAUCACCCAUGUGGCCGUCCGUAGACGGCU [salish99_SSNG1_r04_013] (Eterna round: R96, puzzle: Same State NG 1)
apparent KD of MS2 coat protein (input ligand: FMN 200 uM): 62.5 nM
apparent KD of MS2 coat protein [1]: 35.9 nM
apparent KD of MS2 coat protein (input ligand: none): 61.2 nM

GCUGCAAGGGCAGGAUAUGGGUUCAGAGCGGAAGUGCGCUUUGAUACAUGAGGAUCACCCAUGUCCCAGAAGGGCCCAUGCGGC [Arredibi] (Eterna round: R96, puzzle: Same State NG 2)
apparent KD of MS2 coat protein (input ligand: FMN 200 uM): 19.1 nM
apparent KD of MS2 coat protein [1]: 78.4 nM
apparent KD of MS2 coat protein (input ligand: none): 113 nM

AGUCCAGCCUGAGCUGGACAAAAGCAUGUACAUGAGGAUCACCCAUGUCGUGUACAAGCUUUUUGCUCGUCUUAAAA [Zipper 46 - 5] (puzzle: Sensor for hsa-mir-208a)
apparent KD of MS2 coat protein [2]: 376 nM
apparent KD of MS2 coat protein [3]: 12.4 nM
apparent KD of MS2 coat protein [4]: 334 nM

UAAAUACAUGAGGAUCACCCAUGUCAAAAGACAUGAGGAUAUGUACAGUCUUCGGUCUGUACAGAAGGCAUGAAUA [salish99_ss1_r3_097] (Eterna round: R96, puzzle: Same State 1)
apparent KD of MS2 coat protein (input ligand: FMN 200 uM): 52.1 nM
apparent KD of MS2 coat protein [1]: 370 nM
apparent KD of MS2 coat protein (input ligand: none): 461 nM

AGCCGAGACACAGGAUAUAGAUAUCUACAUGAGGAUCACCCAUGUAGCAACACGUGGUAGUGAUUCUAGAAGGGUGCUCGGCGC [Omei SS(NG)2 Cv8] (Eterna round: R96, puzzle: Same State NG 2)
apparent KD of MS2 coat protein (input ligand: FMN 200 uM): 25.3 nM
apparent KD of MS2 coat protein [1]: 170 nM
apparent KD of MS2 coat protein (input ligand: none): 189 nM

CUUUUUAGUGCAGGAUAUGAUCAACAUGAGGAUCACCCAUGUGGCGUUGUGAGUAGGGAGAGUGAUCAGAAGGGCGUCUCCGCG [SS-NG2-LRO11] (Eterna round: R96, puzzle: Same State NG 2)
apparent KD of MS2 coat protein (input ligand: FMN 200 uM): 72 nM
apparent KD of MS2 coat protein [1]: 36.1 nM
apparent KD of MS2 coat protein (input ligand: none): 59.9 nM

ACAGAGUGAAGACAGGAUAUUCGCGAUGGCACAUGAGGAUCACCCAUGUUUUGAGCACAUAAACAGAAGAAGGGUUAAAACUCAG [Zadier] (puzzle: Same State 2)
apparent KD of MS2 coat protein [2]: 15 nM
apparent KD of MS2 coat protein [3]: 119 nM
apparent KD of MS2 coat protein [4]: 362 nM

GUGGUCAGACAUGAGGAUCACCCAUGUGGAAUAAAUAAGGGAGAGGAUAUAUAAUAUAGGAUAUAAUAGAAGGCUCGGUUGGUG (Eterna round: R96, puzzle: Same State NG 3)
apparent KD of MS2 coat protein [1]: 89.5 nM

— the supplement of paper PMC9170038
